Source: patent publication US20020110800A1, “Use of SHP-1 and SHP-2 to detect compounds involved in neuronal survival” (McGill University, priority 1997, published 2002)

Experiments:
[1] = tested on: SHP-2; assay: NGF-stimulated association of SHP-2 with tyrosine-phosphorylated proteins in PC12 cells; assay type: cell-based; conditions: proteins of 50 to 125 kDa
Method: FIG. 3 is a Western blot showing that NGF stimulates the association of SHP-2 with tyrosine-phosphorylated proteins in PC12 cells. Lysates prepared from PC12 cells treated with NGF for the indicated times were immunoprecipitated with anti-SHP-2 and probed with anti-pTyr antibodies.
(§1) Immunoprecipitations and immunoblotting were performed as previously described (Kaplan et al., Science, 252:554-558, 1991). Briefly, after two washes with ice-cold Tris-buffered saline, cells were lysed in 1 ml of 1% Nonidet P-40 (NP-40 lysis buffer (20 mM Tris [pH8.0], 137 mM NaCl, 0.5 mM EDTA, 10% glycerol, 1 mM phenylmethylsulphonyl fluoride, 0.15 U/ml aprotinin, 20 μM leupeptin, 1 mM sodium vanadate) at 4° C. for 20 min. Insoluble material was removed by centrifugation at 4° C. for 10 min at 10,000× g. Immunoprecipitations were performed for 4-6 hr at 4° C. Precipitates were collected with protein A-Sepharose, then washed three times with NP-40 lysis buffer and once with water. The immunoprecipitates were boiled in sample buffer (2% SDS, 100 mM dithiothreitol, 10% glycerol, 0.25% bromophenol blue) for 5 min and electrophoretically fractionated by SDS-PAGE. Protein blots were probed overnight at 4° C. with antibody. […]

[2] = tested on: SHP-1; assay: NGF-stimulated tyrosine phosphorylation of SHP-1 (immunoprecipitation with anti-SHP-1, anti-pTyr blot); assay type: cell-based; conditions: PC12 cells; increased at 10 minutes, still elevated at 30 minutes of neurotrophin treatment
Method: FIG. 2 is a Western blot showing that NGF stimulates tyrosine phosphorylation of SHP-1 in PC12 cells. Lysates prepared from cells treated with NGF were immunoprecipitated with anti-SHP-1 and probed with an anti-phosphotyrosine (pTyr) antibody (top panel).
as §1

[3] = tested on: SHP-2; assay: NGF-stimulated association of SHP-2 with tyrosine-phosphorylated proteins in SCG neurons; assay type: cell-based, rat; conditions: NGF-treated SCG cultures
Excerpt: FIG. 4 is a Western blot showing that NGF stimulates an increased association of tyrosine-phosphorylated proteins with SHP-2 in SCG neurons. Lysates prepared from neurotrophin-treated SCGs were immunoprecipitated with anti-SHP-2 antibody and immunoblotted with anti-pTyr. Lanes 1 and 2: NGF-stimulated association of tyrosine-phosphorylated proteins with SHP-2. Lanes 3 and 4: NGF-stimulated increase in tyrosine phosphorylation of SCG proteins.
To determine the mechanism whereby the neutrotrophins stimulate the survival and growth of normal and injured neurons, we have asked whether the phosphoprotein phosphatases SHP-1 and SHP-2 play a role in the differentiation and survival of primary neurons, focusing our studies on cultured rat sympathetic cervical ganglion (SCG) and cortical neurons in order to determine the exact nature of this regulation.
Immunoprecipitations and immunoblotting were performed as previously described (Kaplan et al., Science, 252:554-558, 1991). […]

[4] = biological target: T1, TrkA (Homo sapiens, UniProt P04629); assay: In vitro association of SHP with baculovirus-expressed TrkA; assay type: binding; conditions: autophosphorylated TrkA, insect cells
T1 construct: expressed in transfected cells; host or cells: Sf9 insect cells infected with recombinant baculoviruses
Method: (§2) FIG. 7 is a Western blot showing that SHP-1 associates with baculovirus-expressed TrkA, TrkB and TrkC. TrkA, B and C were activated and autophosphorylated in vitro, incubated with PC12 cell lysates, fractionated by electrophoresis, and probed with anti-SHP-1 (bottom panel), and anti-pan Trk antibodies (upper panel).
Wild-type and mutant TrkA receptors expressed in Sf9 cells were autophosphorylated, incubated with PC12 lysates and immunoblotted with anti-SHP-2.
The in vitro association assay using baculovirus-expressed proteins was performed as described (Kaplan et al., supra). Briefly, Sf9 cells (2×10^6) were infected, harvested, and lysed in NP-40 lysis buffer. Trk proteins were immunoprecipitated with anti-Trk (203) antibody, and the immunoprecipitates were washed once with lysis buffer containing 1% deoxycholate and 0.1% SDS (RIPA), and three times with 50 mM Tris (pH 7.4). Trks then were activated (i.e. autophosphorylated) by incubation with 50 mM Tris (pH 7.4), 5 mM Mn Cl2, 1 mM ATP and 200 μM orthovanadate. Trk proteins then were washed twice with NP40 lysis buffer and were resuspended in 1 ml of PC12 cell lysate. The immunoprecipitated, activated Trk complexes were incubated with the cell lysate for 3 hr at 4° C., and then washed three times with NP-40 lysis buffer and once with 10 mM Tris (pH 7.4) before immunoblot analysis. […]

[5] = biological target: T2, TrkC (Homo sapiens, UniProt Q16288); assay: In vitro association of SHP with baculovirus-expressed TrkC; assay type: binding; conditions: autophosphorylated TrkC, insect cells
T2 construct: made in house; host or cells: Sf9 insect cells (recombinant baculovirus)
Method: as §2
(§3) The in vitro association assay using baculovirus-expressed proteins was performed as described (Kaplan et al., supra). Briefly, Sf9 cells (2×10^6) were infected, harvested, and lysed in NP-40 lysis buffer. Trk proteins were immunoprecipitated with anti-Trk (203) antibody, and the immunoprecipitates were washed once with lysis buffer containing 1% deoxycholate and 0.1% SDS (RIPA), and three times with 50 mM Tris (pH 7.4). Trks then were activated (i.e. autophosphorylated) by incubation with 50 mM Tris (pH 7.4), 5 mM Mn Cl2, 1 mM ATP and 200 μM orthovanadate. Trk proteins then were washed twice with NP40 lysis buffer and were resuspended in 1 ml of PC12 cell lysate. The immunoprecipitated, activated Trk complexes were incubated with the cell lysate for 3 hr at 4° C., and then washed three times with NP-40 lysis buffer and once with 10 mM Tris (pH 7.4) before immunoblot analysis.
(§4) To investigate the mechanism whereby SHP inhibits NGF-induced signaling responses, we first asked whether the SHPs bound to Trk. […]

[6] = biological target: T3, TrkB (Homo sapiens, UniProt Q16620); assay: In vitro association of SHP with baculovirus-expressed TrkB; assay type: binding; conditions: autophosphorylated TrkB, insect cells
T3 construct: made in house; host or cells: Sf9 insect cells (recombinant baculovirus)
Method: as §2, §3, §4

[7] = tested on: TrkA; assay: Trk dephosphorylation on coexpression with SHP in Sf9 insect cells; assay type: cell-based; conditions: coexpressed in insect cells, anti-pTyr blot
Excerpt: (§5) FIG. 11 is a Western blot showing that Y490 and Y785 of TrkA are not required for SHP-1 and SHP-2-mediated dephosphorylation of TrkA in vivo. Lysates of Sf9 insect cells coexpressing SHP-1 or SHP-2 wild-type and mutant TrkAs, as indicated, were immunoprecipitated with anti-Trk and probed with anti-pTyr antibody (upper panel) to determine TrkA phosphorylation levels.
(§6) FIG. 12 is a Western blot showing that Y674/Y675 of TrkA are targets of SHP-1 and SHP-2-mediated dephosphorylation. Lysates of Sf9 insect cells co-expressing SHP-1 or SHP-2 and wild-type TrkA using antibodies that specifically recognize these phosphorylated residues. Blots were probed with anti-pan Trk (C,D), anti-SHP-1 (E,F), or anti-SHP2 (G,H) antibodies.
(§7) Sf9 insect cells (2×10^6) were infected with recombinant baculoviruses at a multiplicity of infection of 1 to 10 and lysed at 48 hr postinfection. Sf9 cells were assayed for the expression of the recombinant proteins by immunoblot analysis, as described above. Recombinant baculoviruses were prepared as previously described (Stephens et al., Neuron, 12:691-705, (1994).
(§8) We hypothesized that the suppressive effects of SHP upon NGF-mediated survival might be due to dephosphorylation of the autophosphorylated Trk receptor. Given that SHP-1 can bind to activated Trk and that SHP-2 is activated by Trk (see Example II), we sought to determine whether the SHPs could dephosphorylate TrkA in vitro and in vivo. Trk, SHP-1, and SHP-2 were expressed in Sf9 cells and isolated by immunoprecipitation with anti-Trk, anti-SHP-1, or anti-SHP-2 antibodies. Immunoprecipitated Trk was autophosphorylated by incubating with 10 mM MnCl2, 20 mM Tris pH 7.4 and 2.0 μCi/ml [γ-^32P]-ATP(3000 Ci/mmol) for 30 minutes at room temperature. Activated, radiolabeled Trk then was incubated with partially purified SHP-1 or SHP-2 for 20 minutes at 30° C. In vitro, both SHP-1 and SHP-2 are able to dephosphorylate Trk to a similar extent (FIG. 10) i.e., approximately 5-fold dephosphorylation. Moreover, coexpression of Trk with SHP-1 or SHP-2 in insect cells results in Trk dephosphorylation. In vivo, both SHP-1 and SHP-2 reduce Trk tyrosine phosphorylation, even when the receptors lack tyrosine 490 (Y490F) and/or tyrosine 785 (Y785F) (FIGS. 11 and 12).
(§9) In order to map the sites of dephosphorylation two approaches were taken. First, we asked whether Trks mutated at tyrosines 490 and 785 could be dephosphorylated by SHP-1 or SHP-2 when coexpressed in insect cells (FIG. 11). SHP-1 extensively dephosphorylates (about 8-fold) all of the Trks, both wild-type and mutated, whereas SHP-2 causes a more modest dephosphorylation (about 2-fold). […] To determine whether the two other major tyrosine phosphorylation sites in Trk, Y674 and 675, are substrates of the SHPs, wild-type TrkA and the SHPs were coexpressed in insect cells, and Trk phosphorylation at Y674, Y675 and Y490 was assessed using phospho-specific anti-Trk antibodies directed at tyrosines 674/675 and 490. SHP-1 completely dephosphorylates Trk (about 10-fold) at the 674/675 sites, while SHP-2 partially dephosphorylates Trk (about 2-fold) at these sites. Tyrosine phosphorylation of the Y490 site also is decreased by SHP-1. […] Since SHP-2 expression stimulates sympathetic neuron death (FIG. 6), we conclude that SHP functions by associating with neurotrophin-activated Trk, dephosphorylating the receptor at sites crucial for maintaining Trk activity, and thereby suppressing neuronal survival.

[8] = biological target: T1, TrkA; assay: as above; assay type: cell-based; conditions: wild-type TrkA coexpressed in insect cells; for dephosphorylation of Trk at the 674/675 sites: phospho-specific anti-Trk antibodies
Excerpt: as §5, §6, §7, §8, §9

[9] = biological target: T4, Trk (Homo sapiens, UniProt P04629); assay: In vitro dephosphorylation of autophosphorylated 32P-labeled Trk by partially purified SHP; assay type: biochemical; conditions: 20 minutes at 30° C.
T4 construct: made in house; host or cells: Sf9 insect cells (recombinant baculovirus)
Method: FIG. 10 is an autoradiogram showing that SHP-1 and SHP-2 dephosphorylate Trk in vitro. Trk, SHP-1 and SHP-2 were expressed in Sf9 insect cells and isolated by immunoprecipitation with anti-Trk, anti-SHP-1 or anti-SHP-2 antibody. Immunoprecipitated Trk was autophosphorylated with [y-^32P]ATP and then was incubated with partially purified SHP-1 or SHP-2. Trk phosphorylation levels then were analyzed by SDS/PAGE and autoradiography.
as §8, with “Moreover, coexpression of Trk with SHP-1 or SHP-2 in insect cells results in Trk dephosphorylation. In vivo, both SHP-1 and SHP-2 reduce Trk tyrosine phosphorylation, even when the receptors lack tyrosine 490 (Y490F) and/or tyrosine 785 (Y785F) (FIGS. 11 and 12).” left out

T1 sequence (P04629 33-790 isoform P04629-2): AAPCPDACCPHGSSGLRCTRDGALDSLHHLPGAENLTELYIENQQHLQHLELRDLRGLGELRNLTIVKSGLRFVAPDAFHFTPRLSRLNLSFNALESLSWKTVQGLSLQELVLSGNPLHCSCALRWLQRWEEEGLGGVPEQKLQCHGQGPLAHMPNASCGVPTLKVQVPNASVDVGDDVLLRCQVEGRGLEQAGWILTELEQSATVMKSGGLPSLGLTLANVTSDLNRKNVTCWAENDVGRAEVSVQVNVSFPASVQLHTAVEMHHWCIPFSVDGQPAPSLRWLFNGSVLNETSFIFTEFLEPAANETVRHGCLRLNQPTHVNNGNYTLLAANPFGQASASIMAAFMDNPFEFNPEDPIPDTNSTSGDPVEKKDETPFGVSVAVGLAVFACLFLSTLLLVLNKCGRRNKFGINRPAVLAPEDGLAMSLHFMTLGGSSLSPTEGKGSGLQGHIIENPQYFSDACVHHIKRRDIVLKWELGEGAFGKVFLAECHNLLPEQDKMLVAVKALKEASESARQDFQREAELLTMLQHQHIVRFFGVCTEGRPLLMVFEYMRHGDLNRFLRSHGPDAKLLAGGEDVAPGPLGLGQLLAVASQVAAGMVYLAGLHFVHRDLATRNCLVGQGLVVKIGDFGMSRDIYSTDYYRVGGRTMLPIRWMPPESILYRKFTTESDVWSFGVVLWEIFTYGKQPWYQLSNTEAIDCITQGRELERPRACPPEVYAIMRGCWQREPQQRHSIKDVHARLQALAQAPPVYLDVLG
T4 sequence (P04629 33-790 isoform P04629-2 limits assumed): as the sequence (P04629 33-790 isoform P04629-2) above
T2 sequence (Q16288 32-839, species assumed): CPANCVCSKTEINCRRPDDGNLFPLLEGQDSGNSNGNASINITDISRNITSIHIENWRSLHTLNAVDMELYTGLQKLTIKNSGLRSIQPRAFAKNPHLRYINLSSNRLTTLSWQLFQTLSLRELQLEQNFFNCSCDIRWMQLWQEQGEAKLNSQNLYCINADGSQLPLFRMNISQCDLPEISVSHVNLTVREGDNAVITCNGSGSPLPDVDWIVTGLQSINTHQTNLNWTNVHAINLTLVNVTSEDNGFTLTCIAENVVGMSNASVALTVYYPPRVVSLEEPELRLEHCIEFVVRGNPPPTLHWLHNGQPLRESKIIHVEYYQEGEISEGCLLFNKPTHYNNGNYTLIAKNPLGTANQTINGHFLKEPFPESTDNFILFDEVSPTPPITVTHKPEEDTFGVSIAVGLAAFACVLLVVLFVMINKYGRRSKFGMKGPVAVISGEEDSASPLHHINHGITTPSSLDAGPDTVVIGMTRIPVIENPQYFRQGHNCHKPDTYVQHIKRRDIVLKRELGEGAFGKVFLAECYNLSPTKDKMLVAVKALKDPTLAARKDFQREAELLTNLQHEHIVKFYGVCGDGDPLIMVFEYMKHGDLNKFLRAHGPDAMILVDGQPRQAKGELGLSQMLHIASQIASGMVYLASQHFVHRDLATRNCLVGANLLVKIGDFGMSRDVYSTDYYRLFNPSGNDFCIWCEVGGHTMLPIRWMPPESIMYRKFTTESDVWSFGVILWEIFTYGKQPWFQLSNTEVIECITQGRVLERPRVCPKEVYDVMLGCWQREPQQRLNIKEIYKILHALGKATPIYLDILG
T3 sequence (Q16620 32-822, species assumed): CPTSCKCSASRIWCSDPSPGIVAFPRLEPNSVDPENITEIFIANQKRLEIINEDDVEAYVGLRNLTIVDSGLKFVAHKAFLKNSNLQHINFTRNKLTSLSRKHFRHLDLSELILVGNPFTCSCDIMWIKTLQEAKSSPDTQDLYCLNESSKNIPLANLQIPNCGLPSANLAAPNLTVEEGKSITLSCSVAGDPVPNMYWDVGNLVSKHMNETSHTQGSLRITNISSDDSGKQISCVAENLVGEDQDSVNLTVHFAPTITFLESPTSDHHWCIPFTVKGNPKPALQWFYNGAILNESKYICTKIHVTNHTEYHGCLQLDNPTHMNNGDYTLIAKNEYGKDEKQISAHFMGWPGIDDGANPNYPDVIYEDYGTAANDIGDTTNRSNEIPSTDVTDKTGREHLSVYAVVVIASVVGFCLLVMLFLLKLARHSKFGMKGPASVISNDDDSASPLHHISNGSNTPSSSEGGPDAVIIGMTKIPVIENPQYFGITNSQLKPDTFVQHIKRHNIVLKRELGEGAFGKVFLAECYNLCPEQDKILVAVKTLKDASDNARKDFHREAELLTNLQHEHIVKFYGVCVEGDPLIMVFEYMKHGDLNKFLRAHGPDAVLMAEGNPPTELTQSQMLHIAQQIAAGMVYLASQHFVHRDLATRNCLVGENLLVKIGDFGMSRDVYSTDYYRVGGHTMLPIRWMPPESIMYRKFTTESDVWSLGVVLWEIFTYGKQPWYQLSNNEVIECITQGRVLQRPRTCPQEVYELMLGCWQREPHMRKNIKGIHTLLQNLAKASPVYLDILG

dephosphorylation of Trk at the 674/675 sites [8]	tyrosine phosphorylation of the Y490 site ([8]; phospho-specific anti-Trk antibody)	dephosphorylation of Trk in vitro [9]	Substance	association of SHP-2 with tyrosine phosphorylated proteins [1]	tyrosine phosphorylation of SHP-1 [2]	association of SHP-2 with tyrosine phosphorylated proteins [3]	binding to activated Trk [4]	binding to activated Trk [5]	binding to activated Trk [6]	dephosphorylation of Trks, wild-type and mutated at tyrosines 490 and 785 [7]
–	–	–	NGF: prototypical neurotrophin, Nerve Growth Factor, obtained from Peprotech	stimulates the association of SHP-2 with a number of tyrosine phosphorylated proteins	stimulates an increase in the tyrosine phosphorylation of SHP-1	SHP-2 could be seen to associate with at least five tyrosine phosphorylated proteins	–	–	–	–
about 10 fold	decreased	approximately 5 fold	SHP-1: nontransmembrane protein-tyrosine phosphatase containing SH2 domains, GenBank Accession Number M77273	–	–	–	binds to activated (i.e. autophosphorylated) TrkA, TrkB and TrkC	binds to activated (i.e. autophosphorylated) TrkA, TrkB and TrkC	binds to activated (i.e. autophosphorylated) TrkA, TrkB and TrkC	about 8 fold
about 2 fold	–	approximately 5 fold	SHP-2: nontransmembrane protein-tyrosine phosphatase containing SH2 domains, GenBank Accession Number L03535	–	–	–	unable to bind to Trk	–	–	about 2 fold
